Measured values reported in the supplement of paper PMC9112550, “Optimization of the antimicrobial peptide Bac7 by deep mutational scanning” (BMC Biology, 2022).

Tested on: Escherichia coli TOP10
Assay: shrunken log2 fold change of peptide-encoding DNA abundance (4.5 h post-induction vs induction); higher = less antimicrobial activity (less host growth inhibition)
Settings: time post-induction: 4.5 h; library: site-saturation at positions 5, 18, 19, 20
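Also: peptides expressed intracellularly from a pBAD plasmid library in pooled LB shake-flask culture, induced with 0.3% L-arabinose, DNA abundance read by NGS, three biological replicates, DESeq2 with apeglm shrinkage.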

Sequence	shrunken log2 fold change
RRIRFRPPRLPRPRPRPAPHPRP	0.442
RRIRPRPPRLPRPRPRPLLLPRP	-0.208
RRIRYRPPRLPRPRPRPVHAPRP	-0.13
RRIRKRPPRLPRPRPRPEFYPRP	-0.0131
RRIRFRPPRLPRPRPRPAPYPRP	1.75
RRIRERPPRLPRPRPRPLIVPRP	-0.632
RRIRPRPPRLPRPRPRPNHAPRP	-0.162
RRIRGRPPRLPRPRPRPPNEPRP	0.947
RRIRSRPPRLPRPRPRPNSWPRP	0.0508
RRIRARPPRLPRPRPRPHEFPRP	0.293
RRIRTRPPRLPRPRPRPSHHPRP	-0.646
RRIRYRPPRLPRPRPRPHQLPRP	-0.191
RRIRYRPPRLPRPRPRPLKYPRP	-0.352
RRIRMRPPRLPRPRPRPLVTPRP	-0.107
RRIRQRPPRLPRPRPRPNPGPRP	-0.205
RRIRLRPPRLPRPRPRPGDMPRP	-0.129
RRIRCRPPRLPRPRPRPFFGPRP	0.0829
RRIRHRPPRLPRPRPRPFERPRP	-0.128
RRIRIRPPRLPRPRPRPIERPRP	-0.0785
RRIRLRPPRLPRPRPRPTMQPRP	-0.0477
RRIRGRPPRLPRPRPRPLRYPRP	0.688
RRIRYRPPRLPRPRPRPACTPRP	-0.292
RRIRNRPPRLPRPRPRPYEKPRP	-0.0332
RRIRMRPPRLPRPRPRPCCNPRP	-0.00151
RRIRMRPPRLPRPRPRPIFAPRP	0.556

Sequence	shrunken log2 fold change
RRIRNRPPRLPRPRPRPRRHPRP	0.0212
RRIRARPPRLPRPRPRPGLQPRP	0.577
RRIRQRPPRLPRPRPRPPIEPRP	-0.09
RRIRGRPPRLPRPRPRPARFPRP	0.683
RRIRWRPPRLPRPRPRPKTLPRP	0.19
RRIRKRPPRLPRPRPRPQISPRP	-0.0814
RRIRRRPPRLPRPRPRPRIVPRP	0.00997
RRIRHRPPRLPRPRPRPICQPRP	-0.113
RRIRIRPPRLPRPRPRPGAAPRP	0.18
RRIRSRPPRLPRPRPRPLATPRP	0.627
RRIRVRPPRLPRPRPRPPDPPRP	0.342
RRIRIRPPRLPRPRPRPEVRPRP	-0.0584
RRIRLRPPRLPRPRPRPKLLPRP	-0.331
RRIRPRPPRLPRPRPRPITCPRP	0.102
RRIRERPPRLPRPRPRPLKRPRP	-0.28
RRIRRRPPRLPRPRPRPVIEPRP	0.119
RRIRHRPPRLPRPRPRPQKIPRP	0.0342
RRIRRRPPRLPRPRPRPVYGPRP	-0.0668
RRIRHRPPRLPRPRPRPTVTPRP	-0.0378
RRIRARPPRLPRPRPRPLQAPRP	0.674
RRIRWRPPRLPRPRPRPYLTPRP	-0.089
RRIRHRPPRLPRPRPRPDWWPRP	0.0937
RRIRKRPPRLPRPRPRPCFGPRP	0.194
RRIRYRPPRLPRPRPRPRDSPRP	-0.269
RRIRIRPPRLPRPRPRPGKIPRP	-0.0443

Sequence	shrunken log2 fold change
RRIRKRPPRLPRPRPRPEDKPRP	0.0421
RRIRIRPPRLPRPRPRPRRFPRP	-0.00443
RRIRYRPPRLPRPRPRPYQWPRP	-0.257
RRIRTRPPRLPRPRPRPHHFPRP	-0.0421
RRIRIRPPRLPRPRPRPAQTPRP	-0.0145
RRIRKRPPRLPRPRPRPHHRPRP	-0.0531
RRIRRRPPRLPRPRPRPAGGPRP	0.327
RRIRGRPPRLPRPRPRPCTEPRP	0.509
RRIRCRPPRLPRPRPRPPPIPRP	0.998
RRIRNRPPRLPRPRPRPIKRPRP	0.0699
RRIRDRPPRLPRPRPRPLQAPRP	0.365
RRIRWRPPRLPRPRPRPKPMPRP	0.171
RRIRNRPPRLPRPRPRPCPGPRP	0.00341
RRIRSRPPRLPRPRPRPKYIPRP	-0.383
RRIRTRPPRLPRPRPRPHKMPRP	-0.0381
RRIRIRPPRLPRPRPRPFWVPRP	-0.2
RRIRDRPPRLPRPRPRPEFYPRP	0.475
RRIRSRPPRLPRPRPRPNGHPRP	-0.0925
RRIRPRPPRLPRPRPRPWLGPRP	0.256
RRIRTRPPRLPRPRPRPNIFPRP	-0.174
RRIRGRPPRLPRPRPRPQFKPRP	0.0112
RRIRQRPPRLPRPRPRPRCPPRP	0.313
RRIRQRPPRLPRPRPRPMRDPRP	0.0311
RRIRIRPPRLPRPRPRPFPEPRP	-0.45
RRIRRRPPRLPRPRPRPHFWPRP	0.51

Sequence	shrunken log2 fold change
RRIRWRPPRLPRPRPRPMELPRP	1.2
RRIRMRPPRLPRPRPRPRNNPRP	0.063
RRIRLRPPRLPRPRPRPDETPRP	-0.0184
RRIRGRPPRLPRPRPRPTTEPRP	0.836
RRIRYRPPRLPRPRPRPLFPPRP	-0.643
RRIRYRPPRLPRPRPRPCQHPRP	-0.253
RRIRARPPRLPRPRPRPNIMPRP	-0.266
RRIRTRPPRLPRPRPRPCQPPRP	-0.387
RRIRIRPPRLPRPRPRPWSVPRP	-0.541
RRIRWRPPRLPRPRPRPPNFPRP	0.015
RRIRIRPPRLPRPRPRPHKDPRP	-0.447
RRIRNRPPRLPRPRPRPWHSPRP	-0.496
RRIRGRPPRLPRPRPRPNFHPRP	0.611
RRIRQRPPRLPRPRPRPCCPPRP	-0.192
RRIRPRPPRLPRPRPRPQQIPRP	-0.124
RRIRPRPPRLPRPRPRPCQRPRP	-0.144
RRIRQRPPRLPRPRPRPKYEPRP	0.0304
RRIRHRPPRLPRPRPRPTPYPRP	-0.0416
RRIRFRPPRLPRPRPRPTHTPRP	0.186
RRIRRRPPRLPRPRPRPMVSPRP	0.0678
RRIRMRPPRLPRPRPRPNHSPRP	-0.38
RRIRSRPPRLPRPRPRPKNKPRP	-0.242
RRIRYRPPRLPRPRPRPIFHPRP	-0.456
RRIRSRPPRLPRPRPRPVWCPRP	0.143
RRIRWRPPRLPRPRPRPSLNPRP	-0.0829

Sequence	shrunken log2 fold change
RRIRLRPPRLPRPRPRPCCKPRP	-0.102
RRIRQRPPRLPRPRPRPRWGPRP	0.447
RRIRMRPPRLPRPRPRPEVSPRP	0.221
RRIRGRPPRLPRPRPRPHRNPRP	-0.184
RRIRFRPPRLPRPRPRPLGWPRP	0.494
RRIRWRPPRLPRPRPRPAARPRP	0.622
RRIRHRPPRLPRPRPRPPIQPRP	0.0855
RRIRLRPPRLPRPRPRPYRKPRP	-0.262
RRIRQRPPRLPRPRPRPPDHPRP	-0.27
RRIRMRPPRLPRPRPRPIKSPRP	-0.0237
RRIRHRPPRLPRPRPRPLAGPRP	0.312
RRIRDRPPRLPRPRPRPDFCPRP	-0.0409
RRIRNRPPRLPRPRPRPLYLPRP	-0.54
RRIRARPPRLPRPRPRPPYLPRP	-0.188
RRIRIRPPRLPRPRPRPMFSPRP	-0.433
RRIRLRPPRLPRPRPRPCMVPRP	-0.365
RRIRKRPPRLPRPRPRPPFLPRP	-0.0158
RRIRLRPPRLPRPRPRPPAHPRP	0.445
RRIRMRPPRLPRPRPRPEIRPRP	-0.0241
RRIRMRPPRLPRPRPRPVFCPRP	0.388
RRIRYRPPRLPRPRPRPRHWPRP	0.272
RRIRDRPPRLPRPRPRPSFKPRP	-0.0471
RRIRLRPPRLPRPRPRPTANPRP	0.329
RRIRTRPPRLPRPRPRPSLTPRP	-0.452
RRIRLRPPRLPRPRPRPNSDPRP	-0.2

Sequence	shrunken log2 fold change
RRIRPRPPRLPRPRPRPCPNPRP	-0.0908
RRIRQRPPRLPRPRPRPDQQPRP	0.0334
RRIRQRPPRLPRPRPRPDMYPRP	0.0381
RRIRARPPRLPRPRPRPHPEPRP	0.7
RRIRVRPPRLPRPRPRPTEQPRP	0.0304
RRIRRRPPRLPRPRPRPVVGPRP	0.487
RRIRQRPPRLPRPRPRPMWWPRP	0.128
RRIRLRPPRLPRPRPRPVDKPRP	-0.138
RRIRCRPPRLPRPRPRPHGNPRP	-0.233
RRIRRRPPRLPRPRPRPWCLPRP	-0.214
RRIRVRPPRLPRPRPRPCLAPRP	-0.0591
RRIRTRPPRLPRPRPRPLCSPRP	-0.27
RRIRTRPPRLPRPRPRPIRLPRP	0.0213
RRIRPRPPRLPRPRPRPLCVPRP	-0.214
RRIRARPPRLPRPRPRPLYYPRP	-0.316
RRIRTRPPRLPRPRPRPICFPRP	-0.583
RRIRGRPPRLPRPRPRPLEYPRP	0.123
RRIRYRPPRLPRPRPRPVMCPRP	-0.266
RRIRKRPPRLPRPRPRPFDHPRP	0.119
RRIRNRPPRLPRPRPRPMQRPRP	0.00752
RRIRGRPPRLPRPRPRPADEPRP	0.239
RRIRKRPPRLPRPRPRPPMRPRP	0.918
RRIRQRPPRLPRPRPRPGRLPRP	0.0206
RRIRARPPRLPRPRPRPVVQPRP	0.511
RRIRHRPPRLPRPRPRPVERPRP	-0.00973
